From patent publication US20170081379A1 (Dana-Farber, published 2017)
Bridge positions count the residues as written; N and C are the ends. Square brackets hold non-standard residues; d marks the D form. R8 = C=CCCCCCC[C@@](C)(N)C(=O)O; S5 = C=CCCC[C@](C)(N)C(=O)O

Target: T1, recombinant HDM2 17-125 (human, UniProt Q00987 17-125)
T1 construct: range 17-125
Experiment: fluorescence polarization competition: unlabeled peptide titrated against FITC-WT p53 14-29 (25 nM) bound to HDM2 17-125
Description: (§1) FIG. 12 Competition by fluorescence polarization. Fluoresceinated, wild type p53₁₄₋₂₉ (25 nM) was incubated with recombinant HDM2₁₇₋₁₂₅. Unlabeled SAH-p53s were titrated into the mixture, and displacement of the labeled ligand was measured by fluorescence polarization.
as §1, with “The ability of various SAH-p53s to compete with wild-type p53₁₄₋₂₉ for binding to HDM2₁₇₋₁₂₅ was assessed as follows.” for “FIG. 12 Competition by fluorescence polarization.”

B1: SAH-p53-4 (peptide)
peptide: Ac-LSQETF[R8]DLWKLL[S5]EN-NH2
modifications: staple 7-14
notes: the FITC-labeled form is m4; also called unlabeled SAH-p53-4; Ac-SAH-p53-4
binding result: binds
